Biological target: T1, rabbit IFNγ (rabbit, UniProt P30123 24-167)
T1 construct: also called rabbit IFNgamma; interferon gamma
T1 sequence (looked up): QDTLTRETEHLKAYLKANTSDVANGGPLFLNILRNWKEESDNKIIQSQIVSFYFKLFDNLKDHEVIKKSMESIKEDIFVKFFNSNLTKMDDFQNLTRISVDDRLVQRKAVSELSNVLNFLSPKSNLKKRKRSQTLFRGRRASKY
Test: binding data, method not described

B1: M-T7 point mutation E209I (other)
chain: VRLTSYDLNTFVTWQDDGYTYNVSIKPYTTATWINVCEWASSSCNVSLALQYDLDVVSWARLTRVGKYTEYSLEPTCAVARFSPPEVQLVRTGTSVEVLVRHPVVYLRGQEVSVYGHSFCDYDFGYKTIFLFSKNKRAEYVVPGRYCDNVECRFSIDSQESVCATAVLTYDGSYRSEAGVEVCVPELAKRIVSPYIVKKSSDLEYVKRAIHNEYRLDTSSEGRRLEELYLTVASMFERLVEDVFE
notes: The mutant was made by mutagenic PCR of the His-tagged M-T7 construct; also called M-T7 (E209I); not shown: C-terminal His tag (His6x)
B1: no binding.

From patent US20180193437A1 (UNIVERSITY OF FLORIDA RESEARCH FOUNDATION, published 2018)
